The target of the experiment is 猫杯状病毒 (Feline Calicivirus, FCV), BJH13株 (Feline calicivirus strain BJH13). Kind of experiment: cell-based or functional assay.

B1: 2G3单克隆抗体 (monoclonal antibody against feline calicivirus, from hybridoma 2G3, CGMCC NO.45148) (antibody, V domains shown)
VH: QVQLQQSGPELVKPGTSVKLSCQASGYTFTNYYMWWVKQRPGQGLEWIGQINPNNDNTDFNEKFRNKATLTVDKSSSTAYMQLSRLTSEDSAVYYCTRRAYWGQGTLVTVSA
VL: GVLLTQAPLSLPVSLGDQASISCRSSQYVVYINGNSYLEWYLQKPGQSPKLLIYKVSNRFSGVPDRFSGSGSGTDFTLKISRVEAEDLGIYYCFQGSHVPYTFGGGTKLEIR
As for B1, the 中和抗体效价 (neutralising antibody titre of the injection) is 1280 titre (1:x), the 中和效价 (neutralisation titre of hybridoma supernatant) is 220 to 320 titre (1:x) and the 小鼠腹水中和效价 (neutralisation titre of ascites) is 25100 titre (1:x).

Values taken from patent publication CN115141273A.
